The values below come from patent publication US20110152352A1 (TUFTS UNIVERSITY, published 2011).

The labels stand for the following.
B1: inhibitor Smad6 (other, UniProt O43541 1-496, looked up)
chain: MFRSKRSGLVRRLWRSRVVPDREEGGSGGGGGGDEDGSLGSRAEPAPRAREGGGCGRSEVRPVAPRRPRDAVGQRGAQGAGRRRRAGGPPRPMSEPGAGAGSSLLDVAEPGGPGWLPESDCETVTCCLFSERDAAGAPRDASDPLAGAALEPAGGGRSREARSRLLLLEQELKTVTYSLLKRLKERSLDTLLEAVESRGGVPGGCVLVPRADLRLGGQPAPPQLLLGRLFRWPDLQHAVELKPLCGCHSFAAAADGPTVCCNPYHFSRLCGPESPPPPYSRLSPRDEYKPLDLSDSTLSYTETEATNSLITAPGEFSDASMSPDATKPSHWCSVAYWEHRTRVGRLYAVYDQAVSIFYDLPQGSGFCLGQLNLEQRSESVRRTRSKIGFGILLSKEPDGVWAYNRGEHPIFVNSPTLDAPGGRALVVRKVPPGYSIKVFDFERSGLQHAPEPDAADGPYDPNSVRISFAKGWGPCYSRQFITSCPCWLEILLNNPR
B2: RNA helicase p68 (human p68 cDNA construct, expressed in transfected Cos7 cells) (enzyme, UniProt P17844 1-614, looked up)
chain: MSGYSSDRDRGRDRGFGAPRFGGSRAGPLSGKKFGNPGEKLVKKKWNLDELPKFEKNFYQEHPDLARRTAQEVETYRRSKEITVRGHNCPKPVLNFYEANFPANVMDVIARQNFTEPTAIQAQGWPVALSGLDMVGVAQTGSGKTLSYLLPAIVHINHQPFLERGDGPICLVLAPTRELAQQVQQVAAEYCRACRLKSTCIYGGAPKGPQIRDLERGVEICIATPGRLIDFLECGKTNLRRTTYLVLDEADRMLDMGFEPQIRKIVDQIRPDRQTLMWSATWPKEVRQLAEDFLKDYIHINIGALELSANHNILQIVDVCHDVEKDEKLIRLMEEIMSEKENKTIVFVETKRRCDELTRKMRRDGWPAMGIHGDKSQQERDWVLNEFKHGKAPILIATDVASRGLDVEDVKFVINYDYPNSSEDYIHRIGRTARSTKTGTAYTFFTPNNIKQVSDLISVLREANQAINPKLLQLVEDRGSGRSRGRGGMKDDRRDRYSAGKRGGFNTFRDRENYDRGYSSLLKRDFGAKTQNGVYSAANYTNGSFGSNFVSAGIQTSFRTGNPTGTYQNGYDSTQQYGSNVPNMHNGMNQQAYAYPATAAAPMIGYPMPTGYSQ
notes: Present in nuclear extracts or total lysates of Cos7 cells transfected with the p68 construct; also called Ddx5; DDX5
B3: GST-Smad1 (MH1 domain) fusion protein (other, UniProt Q15797 12-136, looked up)
chain: PAVKRLLGWKQGDEEEKWAEKAVDALVKKLKKKKGAMEELEKALSCPGQPSNCVTIPRSLDGRLQVSHRKGLPHVIYCRVWRWPDLQSHHELKPLECCEFPFGSKQKEVCINPYHYKRVESPVLP
notes: domain: MH1; also called s1-n219; amino-terminal MH1 domain of Smad1; not shown: glutathione S-transferase (GST) tag

For test [1], the target named is B2. The test can be described thus: in vitro pull-down, data not shown.
For test [2], the target named is T1, GST-Smad4(FL) fusion protein (UniProt P08515 1-218 = GST; Q13485 1-552).
T1 construct: also called s4
T1 sequence (P08515 1-218, tags or fused parts left off): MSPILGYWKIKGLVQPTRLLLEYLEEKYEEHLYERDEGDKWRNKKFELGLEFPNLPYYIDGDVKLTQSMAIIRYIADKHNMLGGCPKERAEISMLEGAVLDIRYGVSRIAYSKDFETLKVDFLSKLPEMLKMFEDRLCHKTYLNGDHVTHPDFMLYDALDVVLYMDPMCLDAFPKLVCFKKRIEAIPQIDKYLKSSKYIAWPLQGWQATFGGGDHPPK
The test is described as follows: GST pull-down from nuclear extracts of p68-transfected Cos7 cells, immunoblot with anti-p68.

Test [3] concerns the target B2. The description is as above.

For the molecule B1, in test [1], the binding result is “no binding”. Turning to B2, in test [2], the binding result is on record as “no binding”.

As for B3, in test [3], the binding result was “no binding”.
